What was measured:
[1] = target: Recombinant biotinylated protein L (Thermo Fisher 21189) (UniProt Q51918); assay: SPR; Biacore T200, 25°C; biotinylated ligand captured on a CAP chip through the Biotin CAPture reagent; NISTmAb sample as analyte at 200 nmol/L in PBS-P+ pH 7.4, 50 μL/min, 100 s association, 300 s dissociation; response at the end of the association phase divided by that of NISTmAb Bex, mean of three independent experiments
[2] = target: Recombinant biotinylated protein A (Thermo Fisher 29989) (UniProt P38507); assay: as above

Substance | binding relative to NISTmAb Bex [1] [%] | binding relative to NISTmAb Bex [2] [%]
NISTmAb oxidised in solution, 0.3% H2O2, 30 min (0.3%Nox0.5hr) (antibody) | 99.3 | 94.7
NISTmAb oxidised in solution, 0.3% H2O2, 32 h (0.3%Nox32hr) (antibody) | 92.6 | 38.5

From paper PMC9035890
